Earlier results, collected in paper PMC2783455.

Molecular target: Calmodulin (UniProt P0DP23)

CyaA (from UniProt J7QLC0)
Kd: 0.2 nM
